Experimental data: US20180292411A1

Molecular target: S100A9 (human) (UniProt P06702)
Experiment: cell-based or functional assay

Chain of S100A9 (human) (P06702 whole entry): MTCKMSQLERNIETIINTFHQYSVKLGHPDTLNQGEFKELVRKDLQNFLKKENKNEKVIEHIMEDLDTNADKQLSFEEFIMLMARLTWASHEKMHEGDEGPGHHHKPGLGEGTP

S100A9 high-affinity chimeric (CD33-IgG1) decoy receptor (from UniProt P20138 18-259) (Fc fusion)
colony-forming capacity of MDS BM-MNC (fold greater than controls): < 6.6
